Reference: the RNAGym collection of RNA variant scans (doi:10.7554/elife.80360)

B1: Hairpin Ribozyme (parent)
chain: GUCCUCUUUCACGUGCGCGUGAAAGAGAGAAGUGAACCAGAGAAACACACGUUGUGGUAUAUUACCUGGUA

Variants of: B1
Test: self-cleavage, relative activity (ratio to wild type); higher = more cleavage; co-transcriptional

| Variant | self-cleavage |
| --- | --- |
| GGCCUCUUUCACGUGCGUGUGAAAGAGAGAAGUGAACCAGAGAAACACACGUUGUGGUAUAUUACCUGGUA | 0.378 |
| GGCCUCUUUCCCGUGCGCGUGAAAGAGAGAAGUGAACCAGAGAAACACACGUUGUGGUAUAUUACCUGGUA | 0.267 |
| GGCCUCUUUCGCGUGCGCGUGAAAGAGAGAAGUGAACCAGAGAAACACACGUUGUGGUAUAUUACCUGGUA | 0.306 |
| GGCCUCUUUCUCGUGCGCGUGAAAGAGAGAAGUGAACCAGAGAAACACACGUUGUGGUAUAUUACCUGGUA | 0.295 |
| GGCCUCUUUCACGUGCGCGUGAAAGAGAGAAGUGAACCAGAUAAACACACGUUGUGGUAUAUUACCUGGUA | 0.0398 |
| GCCCUCUUUCACGUGCGCGUGAAAGAGAGAAGUGAACCAGAGAAACACACGUUGUGGAAUAUUACCUGGUA | 0.235 |
| GGCCUCUUUCACGUGCGCGUGAAAGAGAGAAGUGAACCAUAGAAACACACGUUGUGGUAUAUUACCUGGUA | 0.072 |
| GGCCUCUUUCACGUGCGCGUGAAAGAGAGAAGUGAACCACAGAAACACACGUUGUGGUAUAUUACCUGGUA | 0.126 |
| GGCCCCUUUCACGUGCGCGUGAAAGAGAGAAGUGAACCAGAGAAACACACGUUGUGGUAUAUUACCUGGUA | 0.271 |
| GGCCACUUUCACGUGCGCGUGAAAGAGAGAAGUGAACCAGAGAAACACACGUUGUGGUAUAUUACCUGGUA | 0.288 |
| GUACUCUUUCUCGUGCGCGUGAAAGAGAGAAGUGAACCAGAGAAACACACGUUGUGGUAUAUUACCUGGUA | 0.517 |
| GCCCUCUUUCACGUGCGCGUGAAAGAGAGAAGUGAACCAGAGAAACACACGUUGUGGUAUAUAACCUGGUA | 0.115 |
| GUACUCUUUCACGUGCGCGUGGAAGAGAGAAGUGAACCAGAGAAACACACGUUGUGGUAUAUUACCUGGUA | 0.706 |
| GUACUCUUUCACGUGCGCGUGUAAGAGAGAAGUGAACCAGAGAAACACACGUUGUGGUAUAUUACCUGGUA | 0.702 |
| GGCCUCUUUCACGUGCGCGUGAAAGAGAGAAGUGAACCAGAGAAACACACGUUGUGGUAUAAUACCUGGUA | 0.0977 |
| GGCCUCUUUCACGUGCGCGUGAAAGAGAGAAGUGAACCAGAGAAACACACGUUGUGGUAUUUUACCUGGUA | 0.191 |
| GGCCUCUUUCACGUGCGCGUGAAAGCGAGAAGUGAACCAGAGAAACACACGUUGUGGUAUAUUACCUGGUA | 0.153 |
| GGCCUCUUUCACGUGCGCGUGAAAGUGAGAAGUGAACCAGAGAAACACACGUUGUGGUAUAUUACCUGGUA | 0.238 |
| GGCCUCUUUCACGUGCGCGUGAAAGAGAGAAGUGAACCAGAGAAACACACGUUGUGGUAUAUGACCUGGUA | 0.252 |

| Variant | self-cleavage |
| --- | --- |
| GGCCUCUUUCACGUGCGCGUGAAAGAGAGAAGUGAACCAGAGAAACACACGUUGUGGUAUAUCACCUGGUA | 0.142 |
| GGCCUCUUUCACGUGCGCGUGAAAGAGAGAAGUGAACCAGAGAAACACACGUUGUAGUAUAUUACCUGGUA | 0.0909 |
| GCCCUCUUUCACGUGCGCGUGAAAGAGAGAAGUGAACCAGAGAAACACACGUUGUGGUAUAUUACCAGGUA | 0.0712 |
| GGCCUCUUUCACGUGCGCGUGAAAGAGAGAAGUGAACCAGAGAAACACACGUUGUGGUAUAUUACCUGGAA | 0.191 |
| GGCCUCUUUCAAGUGCGCGUGAAAGAGAGAAGUGAACCAGAGAAACACACGUUGUGGUAUAUUACCUGGUA | 0.304 |
| GGCCUCUUUCAUGUGCGCGUGAAAGAGAGAAGUGAACCAGAGAAACACACGUUGUGGUAUAUUACCUGGUA | 0.321 |
| GGCCUCUUUCACGUGCGCGUGAAAGACAGAAGUGAACCAGAGAAACACACGUUGUGGUAUAUUACCUGGUA | 0.112 |
| GGCCUCUUUCACGUGCGCGUGAAAGAGAGAAGUGAACUAGAGAAACACACGUUGUGGUAUAUUACCUGGUA | 0.24 |
| GGCCUCUUUCACGUGCGCGUGAAAGAGAGAAGUGAUCCAGAGAAACACACGUUGUGGUAUAUUACCUGGUA | 0.318 |
| GGCCUCUUUCACGUGCGCGUGAAAGAGAGAAGUGAACCAGAGAAACACACGUUGCGGUAUAUUACCUGGUA | 0.168 |
| GGCCUCUUUCACGUGCGCGUGAAAGAGAGAAGGGAACCAGAGAAACACACGUUGUGGUAUAUUACCUGGUA | 0.171 |
| GGCCUCUUUCACGUGCGCGUGAAAGAGAGAAGCGAACCAGAGAAACACACGUUGUGGUAUAUUACCUGGUA | 0.0578 |
| GCCCUCUUUCACGUGCGCGUGAAAGAGAGAAGUGAACCAGAGAAACACACGUUGAGGUAUAUUACCUGGUA | 0.0763 |
| GGCCUCUUUCACGUGCGCGUGAAAGAGAGAAGUGAACCAGAGAAACACACGUUGUGAUAUAUUACCUGGUA | 0.169 |
| GGCGUCUUUCACGUGCGCGUGAAAGAGAGAAGUGAACCAGAGAAACACACGUUGUGGUAUAUUACCUGGUA | 0.165 |
| GGCCUCUUUCACGUGCGCCUGAAAGAGAGAAGUGAACCAGAGAAACACACGUUGUGGUAUAUUACCUGGUA | 0.338 |
| GGCCUCUUUCACGUGCGCGUGAAAGAGAGAAGUGAACCAGAGCAACACACGUUGUGGUAUAUUACCUGGUA | 0.115 |
| GGCCUCUUUCACGUGCGCGUGAAAGAGAGAAGUGAACCAGAGAAACACACGUUGUGGUACAUUACCUGGUA | 0.373 |
| GGCCUCUGUCACGUGCGCGUGAAAGAGAGAAGUGAACCAGAGAAACACACGUUGUGGUAUAUUACCUGGUA | 0.471 |
